Measured values from paper PMC11931385, “Structural and functional analysis of cancer-associated missense variants in the retinoblastoma protein pocket domain” (The Journal of Biological Chemistry, 2025).
Positions count from the first letter of the chain named. Names and notes keep the numbering of the source. No end group written: not given here. TMR = tetramethyl rhodamine dye

B1: TMR-E2F1^TD, peptide of the E2F1 transactivation domain (peptide)
peptide: {TMR}-GEGIRDLFDCDFGDLTPLD
notes: also called E2F^TD; source: synthetic peptide, bought: GenScript
B2: TMR-E7^LxCxE, LxCxE peptide of the E7 oncoprotein from HPV (peptide)
peptide: DLYCYEQLN
modifications: also: TMR label, position not given here
notes: source: synthetic peptide, bought: GenScript

Key:
Assay in all cases: fluorescence polarisation; 37 °C, after the 25 °C reading ramped over 7 min to 37 °C and 2 min incubation; unlabeled Rb^P against 1.5 nM TMR-E2F1^TD or 7.5 nM TMR-E7^LxCxE; 25 mM Tris pH 8.0, 200 mM NaCl, 1 mM DTT, 0.1% Tween-20; apparent Kd
Settings in all cases: both partners purified
Rb^P E533K = target: T1, Rb^P E533K (human, UniProt P06400 380-788, E533K)
T1 construct: also called variant 22
T1 sequence (looked up): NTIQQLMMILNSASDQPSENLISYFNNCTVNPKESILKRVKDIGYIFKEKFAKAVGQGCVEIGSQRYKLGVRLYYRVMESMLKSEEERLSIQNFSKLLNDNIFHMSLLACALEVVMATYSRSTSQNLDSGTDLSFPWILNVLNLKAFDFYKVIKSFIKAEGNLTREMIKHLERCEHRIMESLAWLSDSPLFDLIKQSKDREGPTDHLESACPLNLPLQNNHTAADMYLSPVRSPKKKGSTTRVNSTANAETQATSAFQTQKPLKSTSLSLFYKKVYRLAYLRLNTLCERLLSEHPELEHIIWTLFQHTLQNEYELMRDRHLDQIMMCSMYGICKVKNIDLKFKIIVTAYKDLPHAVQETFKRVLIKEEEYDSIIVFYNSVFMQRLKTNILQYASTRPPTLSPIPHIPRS

Rb^P H585Y = target: T2, Rb^P H585Y (human, UniProt P06400 380-788, H585Y)
T2 construct: also called variant 33
T2 sequence (looked up): T1 sequence (looked up) with K154E, H206Y

Rb^P H673Y = target: T3, Rb^P H673Y (human, UniProt P06400 380-788, H673Y)
T3 construct: also called variant 55
T3 sequence (looked up): T1 sequence (looked up) with K154E, H294Y

Rb^P M695I = target: T4, Rb^P M695I (human, UniProt P06400 380-788, M695I)
T4 construct: also called variant 61
T4 sequence (looked up): T1 sequence (looked up) with K154E, M316I

Rb^P R451S = target: T5, Rb^P R451S (human, UniProt P06400 380-788, R451S)
T5 construct: also called variant 7
T5 sequence (looked up): T1 sequence (looked up) with R72S, K154E

| Binder | Kd (Rb^P E533K) | Kd (Rb^P H585Y) | Kd (Rb^P H673Y) | Kd (Rb^P M695I) | Kd (Rb^P R451S) |
| --- | --- | --- | --- | --- | --- |
| B1 | 1800 nM | 92 nM | 66 nM | 165 nM | 44 nM |
| B2 | 14 nM | 18 nM | 29 nM | 93 nM | 17 nM |
